To fix the notation:
B1: Wild type pig serum albumin (ligand)
chain: DTYKSEIAHRFKDLGEQYFKGLVLIAFSQHLQQCPYEEHVKLVREVTEFAKTCVADESAENCDKSIHTLFGDKLCAIPSLREHYGDLADCCEKEEPERNECFLQHKNDNPDIPKLKPDPVALCADFQEDEQKFWGKYLYEIARRHPYFYAPELLYYAIIYKDVFSECCQAADKAACLLPKIEHLREKVLTSAAKQRLKCASIQKFGERAFKAWSLARLSQRFPKADFTEISKIVTDLAKVHKECCHGDLLECADDRADLAKYICENQDTISTKLKECCDKPLLEKSHCIAEAKRDELPADLNPLEHDFVEDKEVCKNYKEAKHVFLGTFLYEYSRRHPDYSVSLLLRIAKIYEATLEDCCAKEDPPACYATVFDKFQPLVDEPKNLIKQNCELFEKLGEYGFQNALIVRYTKKVPQVSTPTLVEVARKLGLVGSRCCKRPEEERLSCAEDYLSLVLNRLCVLHEKTPVSEKVTKCCTESLVNRRPCFSALTPDETYKPKEFVEGTFTFHADLCTLPEDEKQIKKQTALVELLKHKPHATEEQLRTVLGNFAAFVQKCCAAPDHEACFAVEGPKFVIEIRGILA
notes: also called PSA; pig SA
B2: Soluble pig FcRn with pig beta2-microglobulin, HIS-tagged (Example 4) (receptor)
chain: ADNHRSLLYHLTAVSAPTPGAPAFWVSGWLGPQQYLSYNNLRAQAEPYGAWVWESQVSWYWEKETADLRNKQKLFLEALKTLEEGGPFTLQGLLGCELGPDNVSVPVATFALNGEEFMKFDTKLGTWDGEWPEARTIGSKWMQEPDAVNKEKTFLLYSCPHRLLGHLERGRGNLEWKEPPSMRMKARPGTAPGFSVLTCIAFSFYPPELQLRFLRNGLAAGSGESDIGPNGDGSFHAWSSLTVKSGDEHHYCCVVQHAGLAQPLTVEL
b2m: VARPPKVQVYSRHPAENGKPNYLNCYVSGFHPPQIEIDLLKNGEKMNAEQSDLSFSKDWSFYLLVHTEFTPNAVDQYSCRVKHVTLDKPKIVKWDRDH
notes: also called pFcRn; not shown: HIS-tag on the C-terminal of the beta-chain
B3: Soluble guinea pig FcRn with guinea pig beta2-microglobulin, HIS-tagged (receptor)
chain: AENHLSLLYHLTAVSSPATGSPAFWVSGWLGPQQYLSYSSLRREAEPCGAWVWETQVSWYWEMETTDLKNKESLFLEALKALGGKGPYTLQGILGCELSPDNSSVPTALFALNGEDFMEFHPENGSWTGDWPEALSISKQWEKKAEVVSKEKTFLLSSCPQRLLDHLERSRRNLEWKEPPSMRLKARPGDAGFSVLTCSAFSFYPPELQLRFLHNGLAAGTGEGGFGPNGDGSFHAWSSLTVQRGDEHNYRCLVQHAGLPQPLSVELESPAGSS
b2m: VLHAPRVQVYSRHPAENGKQNFINCYVSGFHPPQIEVELLKNGKKIDNVEMSDLSFSKDWTFYLLVHAAFTPNDSDEYSCRVSHITLSEPKIVKWDPNK
notes: Synthesized by GeneArt, expressed in HEK cells; also called gpFcRn; gpFcRN; not shown: HIS-tag on the C-terminal of the beta-chain
B4: Wild type rhesus monkey serum albumin (ligand)
chain: DTHKSEVAHRFKDLGEEHFKGLVLVAFSQYLQQCPFEEHVKLVNEVTEFAKTCVADESAENCDKSLHTLFGDKLCTVATLRETYGEMADCCAKQEPERNECFLQHKDDNPNLPPLVRPEVDVMCTAFHDNEATFLKKYLYEVARRHPYFYAPELLFFAARYKAAFAECCQAADKAACLLPKLDELRDEGKASSAKQRLKCASLQKFGDRAFKAWAVARLSQKFPKAEFAEVSKLVTDLTKVHTECCHGDLLECADDRADLAKYMCENQDSISSKLKECCDKPLLEKSHCLAEVENDEMPADLPSLAADYVESKDVCKNYAEAKDVFLGMFLYEYARRHPDYSVMLLLRLAKAYEATLEKCCAAADPHECYAKVFDEFQPLVEEPQNLVKQNCELFEQLGEYKFQNALLVRYTKKVPQVSTPTLVEVSRNLGKVGAKCCKLPEAKRMPCAEDYLSVVLNRLCVLHEKTPVSEKVTKCCTESLVNRRPCFSALELDEAYVPKAFNAETFTFHADMCTLSEKEKQVKKQTALVELVKHKPKATKEQLKGVMDNFAAFVEKCCKADDKEACFAEEGPKFVAASQAALA
notes: also called rmSA; rmSA Wt
B5: Wild type guinea pig serum albumin (ligand)
chain: EAHKSEIAHRFNDLGEGHFKGLVLITLSQHLQKSPFEEHVKLVNEVTDFAKACVADESAQNCGKAIATLFGDKVCAIPSLRETYGELADCCAKEDPDRVECFLQHKDDNPNLPPFERPEPEALCTAFKENNDRFIGHYLYEVSRRHPYFYAPELLYYAEKYKNALTECCEAADKAACLTPKLDAIKEKALVSSAQQRLKCASLQKFGERAFKAWSVARLSQKFPKAEFAEISTIVTSLTKVTKECCHGDLLECADDRQELAKYMCEHQDSISSKLKECCVKPTLQKAHCILEIQRDELPTELPDLAVDFVEDKEVCKNFAEAKDVFLGTFLYEYSRRHPEYSIGMLLRIAKGYEAKLEKCCAEADPHACYAKVFDELQPLIDEPKKLVQQNCELFDKLGEYGFQNALAVRYTQKAPQVSTPTLVEYARKLGSVGTKCCSLPETERLSCTENYLALILNRLCILHEKTPVSERVTKCCTESLVNRRPCFSALHVDETYVPKPFHADSFTFHADICTLPEKEKQVKKQMALVELVKHKPKASEEQMKTVMGDFAAFLKKCCDADNKEACFTEDGPKLVAKCQATLA
notes: also called GPSA; guinea pig SA
B6: Wild type dog serum albumin (ligand)
chain: EAYKSEIAHRYNDLGEEHFRGLVLVAFSQYLQQCPFEDHVKLAKEVTEFAKACAAEESGANCDKSLHTLFGDKLCTVASLRDKYGDMADCCEKQEPDRNECFLAHKDDNPGFPPLVAPEPDALCAAFQDNEQLFLGKYLYEIARRHPYFYAPELLYYAQQYKGVFAECCQAADKAACLGPKIEALREKVLLSSAKERFKCASLQKFGDRAFKAWSVARLSQRFPKADFAEISKVVTDLTKVHKECCHGDLLECADDRADLAKYMCENQDSISTKLKECCDKPVLEKSQCLAEVERDELPGDLPSLAADFVEDKEVCKNYQEAKDVFLGTFLYEYARRHPEYSVSLLLRLAKEYEATLEKCCATDDPPTCYAKVLDEFKPLVDEPQNLVKTNCELFEKLGEYGFQNALLVRYTKKAPQVSTPTLVEVSRKLGKVGTKCCKKPESERMSCAEDFLSVVLNRLCVLHEKTPVSERVTKCCSESLVNRRPCFSGLEVDETYVPKEFNAETFTFHADLCTLPEAEKQVKKQTALVELLKHKPKATDEQLKTVMGDFGAFVEKCCAAENKEGCFSEEGPKLVAAAQAALV
notes: also called DSA

The target in test [1] is T1, Soluble dog FcRn, GST-tagged, with human beta2-microglobulin (dog; Schistosoma japonicum; human, UniProt P08515 1-218 = GST).
T1 construct: also called dFcRn
Put plainly: SPR, albumin over immobilized GST-FcRn, pH 6.0, estimated from steady state. The protocol: (§1) SPR experiments were carried out using a Biacore 3000 instrument (GE Healthcare). Flow cells of CM5 sensor chips were coupled with soluble FcRn from one of the following species, human (shFcRn), rat (srFcRn), mouse (smFcRn), rhesus monkey (srmFcRn), dog (dFcRn) or pig (pFcRn) (˜900-2500 resonance units (RU)) using GE Healthcare amine coupling chemistry as per the manufacturer's instructions. The coupling was performed by injecting 2 or 10 μg/ml FcRn in 10 mM sodium acetate pH 5.0 (GE healthcare). Phosphate buffer (67 mM phosphate buffer, 0.15 M NaCl, 0.005% Tween 20) at pH 6.0) was used as running buffer and dilution buffer. Regeneration of the surfaces were done using injections of HBS-EP buffer (0.01 M HEPES, 0.15 M NaCl, 3 mM EDTA, 0.005% surfactant P20) at pH 7.4 (GE Healthcare). For determination of binding kinetics, serial dilutions of albumin (10-0.3 μM) were injected over immobilized receptors at a constant flow rate (50 μl/min) at 25° C. In all experiments, data were zero adjusted and the reference cell subtracted.

In test [2] the target is T2, Soluble pig FcRn, GST-tagged, with human beta2-microglobulin (Example 2) (pig; Schistosoma japonicum; human, UniProt P08515 1-218 = GST).
T2 construct: also called pFcRn; spFcRn
Put plainly: SPR, albumin over immobilized GST-FcRn, pH 6.0, 1:1 model. The protocol:
as §1
A general note: In SPR one partner is held on a chip, and binding of the other changes the refractive index at the surface.

In the next test the target is T3, HSA K573P (human, UniProt P02768 25-609).
T3 construct: Variant of mature HSA
Put plainly: SPR, albumin over immobilized His-FcRn, pH 5.5, 1:1 Langmuir. The protocol: as §1
(§2) The SPR assay was conducted with the following variations to the assay described in the Materials and Method section:
(§3) The soluble FcRn receptors were synthesized by GeneArt and expressed in HEK cells. The soluble FcRn contained a HIS-tag on the C-terminal of the Beta-chain instead of a GST on the heavy chain and the beta-chain used was the native beta-chain of the animal (see Materials and Method section for the corresponding sequences). The soluble FcRn was purified by a HIS trap column followed by an additional purification using an IgG column. The soluble FcRn receptor was diluted to 20 μg/mL. The phosphate buffer used as running buffer in the SPR assay was at pH 5.5 instead of pH 6.0. […] 1:1 Langmuir or Steady state model was used.

The target in test [3] is T4, N-terminally c-myc tagged albumin variant K573P (human, UniProt P02768 25-609).
T4 construct: Substitution numbered on mature HSA, not on the tagged chain; also called c-myc-K573P
The test is described as above. Here is the method:
as §1, §2, §3

Test [4] deals with B1. Put plainly: SPR, albumin over immobilized His-FcRn, pH 5.5, steady state. Here is the method:
as §1, §2, §3

The target of test [5] is T5, Wild type human serum albumin (human, UniProt P02768 25-609).
T5 construct: also called HSA; HSA Wt
Described as above. Here is the method:
as §1, §2, §3

For test [6], the target named is T6, N-terminally c-myc tagged Wt HSA (human, UniProt P02768 25-609).
T6 construct: Secreted from yeast; a +2058 Da miscleaved leader species was reduced to below 5%; also called c-myc-HSA Wt; Cmyc-WT HSA
Described as above. The protocol: as §1, §2, §3

For test [7], the target named is T7, Soluble rhesus monkey FcRn, GST-tagged, with human beta2-microglobulin (rhesus monkey; Schistosoma japonicum; …, UniProt P08515 1-218 = GST).
T7 construct: also called srmFcRn; soluble rhesus macaque FcRn
Put plainly: SPR, albumin over immobilized GST-FcRn, pH 6.0, 1:1 model. The protocol:
as §1

Test [8] addresses T1, Soluble dog FcRn, GST-tagged, with …. The test is described as above. Here is the method:
as §1

The target of test [9] is B3. Put plainly: SPR, albumin over immobilized His-FcRn, pH 5.5, 1:1 Langmuir. Here is the method:
as §1, §2, §3

T3 sequence (P02768 25-609 K597P): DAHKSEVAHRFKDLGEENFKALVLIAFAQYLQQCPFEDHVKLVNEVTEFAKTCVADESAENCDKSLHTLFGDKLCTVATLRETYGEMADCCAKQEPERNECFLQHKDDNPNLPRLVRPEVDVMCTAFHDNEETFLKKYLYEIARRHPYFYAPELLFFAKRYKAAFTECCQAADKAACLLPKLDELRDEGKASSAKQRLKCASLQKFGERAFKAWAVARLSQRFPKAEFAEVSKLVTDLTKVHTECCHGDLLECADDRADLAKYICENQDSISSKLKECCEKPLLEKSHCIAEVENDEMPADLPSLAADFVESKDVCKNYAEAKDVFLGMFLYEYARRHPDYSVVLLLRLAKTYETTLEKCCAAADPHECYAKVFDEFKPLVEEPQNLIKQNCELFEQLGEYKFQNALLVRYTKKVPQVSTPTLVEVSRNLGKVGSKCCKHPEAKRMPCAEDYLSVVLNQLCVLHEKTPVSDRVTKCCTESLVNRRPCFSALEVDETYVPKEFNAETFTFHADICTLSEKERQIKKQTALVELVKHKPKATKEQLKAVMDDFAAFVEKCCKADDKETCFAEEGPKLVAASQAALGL
T4 sequence (P02768 other isoform, or with tags, fused parts or gaps K573P K573P): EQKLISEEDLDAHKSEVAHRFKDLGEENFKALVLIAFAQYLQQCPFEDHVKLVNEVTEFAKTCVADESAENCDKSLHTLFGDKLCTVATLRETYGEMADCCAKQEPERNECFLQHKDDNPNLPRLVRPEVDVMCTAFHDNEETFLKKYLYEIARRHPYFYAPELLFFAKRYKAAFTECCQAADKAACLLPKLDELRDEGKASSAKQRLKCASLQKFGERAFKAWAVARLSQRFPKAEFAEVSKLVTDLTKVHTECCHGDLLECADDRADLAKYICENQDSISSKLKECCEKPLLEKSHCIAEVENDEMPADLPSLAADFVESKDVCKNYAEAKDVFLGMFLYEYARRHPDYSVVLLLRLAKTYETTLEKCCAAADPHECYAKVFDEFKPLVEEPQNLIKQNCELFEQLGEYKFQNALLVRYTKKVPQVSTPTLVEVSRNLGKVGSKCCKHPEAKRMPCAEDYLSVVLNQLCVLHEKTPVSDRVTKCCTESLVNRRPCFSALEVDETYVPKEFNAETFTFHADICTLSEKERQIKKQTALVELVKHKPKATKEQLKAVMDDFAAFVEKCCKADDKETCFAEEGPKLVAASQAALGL
T5 sequence (P02768 25-609): as the sequence (P02768 25-609 K597P) above, with P573K counted along it
T6 sequence (P02768 other isoform, or with tags, fused parts or gaps): as the sequence (P02768 other isoform, or with tags, fused parts or gaps K573P K573P) above, with P583K counted along it

In general, Kd refers to the concentration at which binding is half-saturated. As usually defined, the koff is the first-order rate constant of dissociation. Usually kon stands for the second-order rate constant of association. On to B1, for which, in test [1], the Kd was 23 µM. In test [2], this molecule had a Kd of 2700 nM, a koff of 0.053 s⁻¹ and a kon of 20000 M⁻¹ s⁻¹.

B2: the Kd with HSA K573P was 1.9 µM; in [3], 1.3 µM; in test [4], 210 µM; in test [5], 232 µM; in test [6], 468 µM. The koff with HSA K573P stood at 0.0622 s⁻¹; in [3], 0.0401 s⁻¹. Also, the kon with HSA K573P turned out to be 32700 M⁻¹ s⁻¹; in [3], 31200 M⁻¹ s⁻¹.

With B3, in the test with HSA K573P, binding was put at a Kd of 190 µM, the koff worked out at 0.297 s⁻¹ and the kon was determined as 1500 M⁻¹ s⁻¹. In test [3], this molecule yielded a Kd of 360 µM, a koff of 0.181 s⁻¹ and an on-rate constant (kon) of 500 M⁻¹ s⁻¹.

In test [7], B4 returned a Kd of 2400 nM, a koff of 0.013 s⁻¹ and a kon of 5300 M⁻¹ s⁻¹. Besides, in [2], the Kd was 1200 nM, the koff worked out at 0.012 s⁻¹ and the kon was found to be 10000 M⁻¹ s⁻¹. In test [8], this molecule showed a Kd of 1540 nM, a koff of 0.02 s⁻¹ and a kon of 13000 M⁻¹ s⁻¹.

In the case of B5, in test [9], the Kd came to 1100 nM, the koff came to 0.0419 s⁻¹ and the kon stood at 36200 M⁻¹ s⁻¹.

Regarding B6, in [2], the Kd is 1400 nM, the koff came out at 0.013 s⁻¹ and the kon was 9200 M⁻¹ s⁻¹. In test [8], this molecule came in with a Kd of 280 nM, a koff of 0.0034 s⁻¹ and an on-rate (kon) of 12000 M⁻¹ s⁻¹.
